Source: patent US20230203146A1 (Boehringer Ingelheim, published 2023)
Where two headings read alike, the source gives them in different places.

Assays:
[1] = biological target: T1, FLAG-tagged cynomolgus Ang2 (cynomolgus, UniProt O15123 19-496 (human entry), limits assumed); test: competition ELISA: FLAG-cAng2 binding to coated cTie2-Fc
T1 construct: N-terminally FLAG-tagged, conditioned medium of HEK293T cells; also called cAng2; FLAG-cAng2
T1 chain: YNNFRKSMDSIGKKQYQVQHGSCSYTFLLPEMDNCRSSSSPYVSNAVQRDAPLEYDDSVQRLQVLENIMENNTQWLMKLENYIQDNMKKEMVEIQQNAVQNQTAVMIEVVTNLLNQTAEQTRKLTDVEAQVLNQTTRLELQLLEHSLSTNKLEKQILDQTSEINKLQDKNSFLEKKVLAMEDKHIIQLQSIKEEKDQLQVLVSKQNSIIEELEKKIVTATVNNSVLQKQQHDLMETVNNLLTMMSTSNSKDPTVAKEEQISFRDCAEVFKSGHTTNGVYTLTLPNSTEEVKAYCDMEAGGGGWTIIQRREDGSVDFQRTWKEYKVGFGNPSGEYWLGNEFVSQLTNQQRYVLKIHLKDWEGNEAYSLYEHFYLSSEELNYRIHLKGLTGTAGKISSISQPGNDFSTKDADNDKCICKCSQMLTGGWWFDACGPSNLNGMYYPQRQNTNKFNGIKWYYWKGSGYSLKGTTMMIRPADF
Experimental: (§1) In brief, 2 μg/mL of recombinant mouse Tie2-Fc or cyno Tie2-Fc is coated overnight at 4° C. in a 96-well MaxiSorp plate (Nunc, Wiesbaden, Germany). Coated wells are blocked with a 1% casein solution.

[2] = biological target: T2, recombinant mouse Ang2-FLD (mouse, UniProt O35608 275-496, limits assumed); test: SPR (Biacore T100), VHH immobilized, Ang2-FLD injected
T2 construct: domain: FLD
T2 sequence (looked up): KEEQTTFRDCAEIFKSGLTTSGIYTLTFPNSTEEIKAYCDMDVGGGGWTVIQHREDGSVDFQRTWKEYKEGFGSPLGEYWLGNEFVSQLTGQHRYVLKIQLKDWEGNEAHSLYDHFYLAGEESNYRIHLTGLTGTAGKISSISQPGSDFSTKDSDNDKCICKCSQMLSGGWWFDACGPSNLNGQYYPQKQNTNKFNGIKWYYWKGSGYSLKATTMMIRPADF

[3] = biological target: T3, recombinant rat Ang2-FLD (rat, UniProt O35462 275-496, limits assumed); test: as above
T3 construct: domain: FLD
T3 sequence (looked up): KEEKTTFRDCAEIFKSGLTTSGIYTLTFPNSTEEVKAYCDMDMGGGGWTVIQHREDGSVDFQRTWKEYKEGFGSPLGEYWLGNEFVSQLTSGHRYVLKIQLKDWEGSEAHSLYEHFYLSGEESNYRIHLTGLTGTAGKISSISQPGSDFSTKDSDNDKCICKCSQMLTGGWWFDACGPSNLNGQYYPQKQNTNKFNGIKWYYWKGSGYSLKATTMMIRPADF

[4] = biological target: T4, recombinant cynomolgus Ang2-FLD (cynomolgus, UniProt A0A2K5VNX6 275-496); test: as above
T4 construct: domain: FLD; also called cyno Ang2-FLD
T4 sequence: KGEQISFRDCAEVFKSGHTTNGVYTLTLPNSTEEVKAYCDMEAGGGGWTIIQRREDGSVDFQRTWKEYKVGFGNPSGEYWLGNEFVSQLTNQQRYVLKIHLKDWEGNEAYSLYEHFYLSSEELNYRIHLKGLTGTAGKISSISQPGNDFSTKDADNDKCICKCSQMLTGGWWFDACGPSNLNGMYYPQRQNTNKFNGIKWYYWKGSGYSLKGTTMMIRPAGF

[5] = biological target: T5, recombinant human Ang2-FLD (human, UniProt O15123 275-496, limits assumed); test: as above
T5 construct: domain: FLD
T5 sequence (looked up): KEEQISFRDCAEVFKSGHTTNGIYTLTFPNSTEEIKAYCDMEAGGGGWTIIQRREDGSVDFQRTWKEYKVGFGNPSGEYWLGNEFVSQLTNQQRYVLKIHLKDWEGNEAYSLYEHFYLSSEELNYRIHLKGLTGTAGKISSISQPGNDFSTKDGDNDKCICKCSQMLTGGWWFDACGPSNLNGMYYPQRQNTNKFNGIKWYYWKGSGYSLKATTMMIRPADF

[6] = biological target: T6, FLAG-tagged mouse Ang2 (mouse, UniProt O35608 19-496); test: competition ELISA: FLAG-mAng2 binding to coated mTie2-Fc
T6 construct: N-terminally FLAG-tagged, conditioned medium of HEK293T cells; also called mAng2; FLAG-mAng2
T6 sequence: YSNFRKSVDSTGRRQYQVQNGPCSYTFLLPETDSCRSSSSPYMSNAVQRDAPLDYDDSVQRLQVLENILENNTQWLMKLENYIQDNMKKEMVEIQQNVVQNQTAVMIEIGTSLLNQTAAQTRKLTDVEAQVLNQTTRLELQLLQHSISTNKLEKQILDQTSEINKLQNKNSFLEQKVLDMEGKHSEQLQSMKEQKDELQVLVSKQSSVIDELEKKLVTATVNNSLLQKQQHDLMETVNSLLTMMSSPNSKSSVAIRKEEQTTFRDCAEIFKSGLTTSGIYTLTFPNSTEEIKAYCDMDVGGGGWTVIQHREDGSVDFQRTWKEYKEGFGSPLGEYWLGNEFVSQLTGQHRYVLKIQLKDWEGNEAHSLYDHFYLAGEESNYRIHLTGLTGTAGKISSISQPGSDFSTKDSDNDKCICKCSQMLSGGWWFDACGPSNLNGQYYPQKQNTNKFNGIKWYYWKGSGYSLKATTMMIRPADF
Experimental: as §1

[7] = biological target: T7, FLAG-tagged recombinant human Ang1 (Alexis Biochemicals) (human, UniProt Q15389 20-498, limits assumed); test: competition ELISA, FLAG-hAng1 (0.02 nM) on coated hTie2-Fc
T7 construct: Bought reagent; also called hAng1; FLAG-hAng1
T7 sequence (looked up): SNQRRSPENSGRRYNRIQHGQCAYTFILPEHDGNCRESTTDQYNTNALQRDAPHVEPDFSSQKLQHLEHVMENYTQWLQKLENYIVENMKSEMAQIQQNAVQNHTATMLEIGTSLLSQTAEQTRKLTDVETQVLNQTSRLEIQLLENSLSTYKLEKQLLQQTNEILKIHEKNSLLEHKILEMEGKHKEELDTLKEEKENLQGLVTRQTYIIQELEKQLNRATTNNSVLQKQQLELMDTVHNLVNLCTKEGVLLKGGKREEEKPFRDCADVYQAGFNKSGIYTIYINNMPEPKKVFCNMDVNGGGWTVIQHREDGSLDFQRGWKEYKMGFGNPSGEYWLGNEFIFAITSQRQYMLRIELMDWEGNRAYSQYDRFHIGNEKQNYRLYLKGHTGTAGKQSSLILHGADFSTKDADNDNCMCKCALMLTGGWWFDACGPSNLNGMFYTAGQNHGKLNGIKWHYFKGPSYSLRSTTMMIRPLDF
Experimental: (§2) In brief, 2 μg/mL of recombinant human Tie2-Fc (R&D Systems, Minneapolis, Minn., USA) is coated overnight at 4° C. in a 96-well MaxiSorp plate (Nunc, Wiesbaden, Germany). Coated wells are blocked with a 1% casein solution.

[8] = biological target: T8, N-terminally FLAG-tagged mouse Ang2 (HEK293T conditioned medium) (mouse, UniProt O35608 19-496); test: competition ELISA, FLAG-mAng2 on coated mTie2-Fc
T8 construct: may be a nucleotide entry; also called mAng2; FLAG-mAng2
T8 sequence: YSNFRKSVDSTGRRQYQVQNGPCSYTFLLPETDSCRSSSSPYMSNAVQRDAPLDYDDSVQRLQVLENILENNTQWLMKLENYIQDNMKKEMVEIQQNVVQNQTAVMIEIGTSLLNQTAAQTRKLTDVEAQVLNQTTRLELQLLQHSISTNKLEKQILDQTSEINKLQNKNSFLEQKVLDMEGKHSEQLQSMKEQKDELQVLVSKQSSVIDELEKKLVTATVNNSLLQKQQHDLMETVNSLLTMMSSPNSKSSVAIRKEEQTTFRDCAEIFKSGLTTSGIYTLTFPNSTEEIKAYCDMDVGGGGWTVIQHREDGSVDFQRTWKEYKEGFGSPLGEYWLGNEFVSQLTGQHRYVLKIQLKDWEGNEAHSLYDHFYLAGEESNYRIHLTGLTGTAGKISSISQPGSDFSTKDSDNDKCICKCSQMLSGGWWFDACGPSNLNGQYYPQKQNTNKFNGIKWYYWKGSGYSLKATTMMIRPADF
Experimental: as §1

[9] = biological target: T8, N-terminally FLAG-tagged mouse Ang2 …; test: competition ELISA, FLAG-mAng2 on coated mTie2-Fc; remark: listed apart in the source
Experimental: as §1

[10] = biological target: T9, N-terminally FLAG-tagged cynomolgus Ang2 (HEK293T conditioned medium) (cynomolgus, UniProt O15123 19-496 (human entry), limits assumed); test: competition ELISA, FLAG-cAng2 on coated cTie2-Fc
T9 construct: may be a nucleotide entry; also called cAng2; FLAG-cAng2
T9 chain: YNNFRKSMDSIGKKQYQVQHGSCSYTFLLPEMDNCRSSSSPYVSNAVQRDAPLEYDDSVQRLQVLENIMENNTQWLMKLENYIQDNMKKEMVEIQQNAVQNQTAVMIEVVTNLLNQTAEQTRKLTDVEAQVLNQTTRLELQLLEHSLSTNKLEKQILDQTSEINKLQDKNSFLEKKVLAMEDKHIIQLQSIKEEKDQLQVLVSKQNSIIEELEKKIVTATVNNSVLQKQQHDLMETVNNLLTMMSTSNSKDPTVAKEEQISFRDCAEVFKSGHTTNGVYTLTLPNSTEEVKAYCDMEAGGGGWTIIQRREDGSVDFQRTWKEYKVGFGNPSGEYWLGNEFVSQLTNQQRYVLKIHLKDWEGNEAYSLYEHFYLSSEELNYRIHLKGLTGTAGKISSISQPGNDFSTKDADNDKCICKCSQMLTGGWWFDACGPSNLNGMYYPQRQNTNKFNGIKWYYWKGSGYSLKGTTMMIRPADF
Experimental: as §1

[11] = biological target: T10, recombinant cynomolgus Ang2-FLD (cynomolgus); test: SPR (Biacore T100), binder on CM5 chip, Ang2-FLD as analyte
T10 construct: domain: FLD; also called cyno Ang2-FLD
Outline: (§3)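 Binders were immobilized by amine coupling onto a CM5 sensor chip, and Ang2-FLD from each species was passed over as analyte at 45 μL/min, with 2 min association and 20 min dissociation. Surfaces were regenerated between injections using a 10 sec 25 mM NaOH pulse and 60 sec stabilization. Rate constants came from a 1:1 Langmuir fit, and KD was derived from them.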

[12] = biological target: T11, recombinant human Ang2-FLD (human, UniProt O15123 275-496, limits assumed); test: as above
T11 construct: domain: FLD; not used
T11 sequence (looked up): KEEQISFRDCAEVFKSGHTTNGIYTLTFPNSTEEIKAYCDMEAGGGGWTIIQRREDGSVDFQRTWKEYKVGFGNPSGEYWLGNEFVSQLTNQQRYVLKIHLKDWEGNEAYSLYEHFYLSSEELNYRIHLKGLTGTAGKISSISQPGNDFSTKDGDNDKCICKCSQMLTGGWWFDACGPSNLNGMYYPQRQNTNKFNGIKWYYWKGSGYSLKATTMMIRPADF
Outline: as §3

[13] = biological target: T12, recombinant mouse Ang2-FLD (mouse, UniProt O35608 275-496, limits assumed); test: as above
T12 construct: domain: FLD
T12 sequence (looked up): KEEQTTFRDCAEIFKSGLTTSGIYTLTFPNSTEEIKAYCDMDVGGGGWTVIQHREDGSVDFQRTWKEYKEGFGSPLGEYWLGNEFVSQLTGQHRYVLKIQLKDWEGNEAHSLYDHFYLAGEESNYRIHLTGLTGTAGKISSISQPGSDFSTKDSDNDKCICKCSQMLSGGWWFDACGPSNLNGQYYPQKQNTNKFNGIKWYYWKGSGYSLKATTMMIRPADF
Outline: as §3

[14] = biological target: T7, FLAG-tagged recombinant human Ang1 …; test: ratio of IC50 in hAng1/hTie2 ELISA to IC50 in hAng2/hTie2 ELISA
Experimental: In brief, 2 μg/mL of Tie2/Fc chimera (R&D Systems, Minneapolis, Minn., USA) is coated in a 96-well MaxiSorp plate (Nunc, Wiesbaden, Germany).
as §2

B1: VHH 00919 (VHH, not shown: small tags and cut ends)
VHH: EVQLVESGGGLVQPGGSLRLSCAASGFTLDDYAIGWFRQAPGKEREGVSAIRDNGGSTYYADSVKGRFTISSDNSKNTVYLQMNSLRPEDTAVYYCAAVPAGRLRFGEQWYPLYEYDAWGQGTLVTVSS
With B1 as the binder, how does the IC50 [1] read?
The IC50 was 0.7 nM.

And the Kd [2]?
The Kd was 3 nM.

What about the koff [2] of the same binder?
Its koff is 0.0039 s⁻¹.

And the kon [2]?
Its kon is 1.3e+06 M⁻¹ s⁻¹.

And the Kd [3]?
Its Kd is 10 nM.

What about the koff [3] of the same binder?
Its koff is 0.005 s⁻¹.

What about the kon [3] of the same binder?
Its kon is 500000 M⁻¹ s⁻¹.

And the Kd [4]?
The Kd was 0.54 nM.

What about the koff [4] of the same binder?
The koff was 0.0012 s⁻¹.

And the kon [4]?
Its kon is 2.3e+06 M⁻¹ s⁻¹.

And the Kd [5]?
Its Kd is 1.6 nM.

And the koff [5]?
Its koff is 0.0015 s⁻¹.

And the kon [5]?
Its kon is 950000 M⁻¹ s⁻¹.

And the IC50 [6]?
The IC50 was 1.8 nM.

B2: VHH 10H02 (VHH)
VHH: EVQLVESGGGSVQAGGSLRLSCAASGFTFDDYAIGWFRQAPGKEREGVSCISSSDGSTNYADSVKGRFTISSDTAKNTVYLQMNSLKPEDTAVYYCTAVPATRRTPQMVDANMCWLAEYEYDYWGQGTQVTVSS
notes: also called 010H02; not shown: C-terminal c-myc tag and His6 tag
For B2, which IC50 [7] is on record?
The IC50 was 2000 nM.

What about the IC50 [8] of the same binder?
Its IC50 is 21.4 nM.

What about the IC50 [9] of the same binder?
The IC50 was 5.2 nM.

What about the IC50 [10] of the same binder?
Its IC50 is 23.7 nM.

And the Kd [11]?
Its Kd is 3.4 nM.

And the koff [11]?
The koff was 0.023 s⁻¹.

What about the kon [11] of the same binder?
Its kon is 6.9e+06 M⁻¹ s⁻¹.

What about the Kd [12] of the same binder?
Its Kd is 3.6 nM.

And the koff [12]?
The koff was 0.021 s⁻¹.

What about the kon [12] of the same binder?
The kon was 5.7e+06 M⁻¹ s⁻¹.

And the Kd [13]?
Its Kd is 11 nM.

What about the koff [13] of the same binder?
The koff was 0.026 s⁻¹.

And the kon [13]?
The kon was 2.5e+06 M⁻¹ s⁻¹.

And the hAng1/hAng2 ratio [14]?
Its hAng1/hAng2 ratio is 230.
